The target in test [1] is T1, human Tim-3 expressed on the cell surface (human, UniProt Q8TDQ0 22-301).
T1 construct: also called hTim-3; Human Tim-3 (CHO)
Kind of test: flow cytometry, CHO-human Tim-3 cells. Set-up: Bmax: unit not given here. In general terms: A flow cytometer gives signals particle by particle.

Test [2] has as its target T2, human Tim-3 (Biacore analyte; TIM-3-Fc or TIM-3-HIS, not said which) (human, UniProt Q8TDQ0 22-202).
T2 construct: also called TIM-3 antigen; not shown: Fc or HIS tag
Description: SPR, Tim-3 analyte. (In SPR one partner is held on a chip, and binding of the other changes the refractive index at the surface.)

Test [3] deals with T3, biotinylated recombinant human PD-1 (AcroBiosystems) (human, UniProt Q15116 25-167, limits assumed, biotinylated (sites not given)).
T3 construct: Bought protein; also called biotinylated PD-1
Kind of test: competition, flow cytometry: biotin-PD-1 binding to CHO-human PD-L1 cells.

In test [4] the target is T4, human PD-1 expressed on CHO cells (human, UniProt Q15116 25-288).
T4 construct: also called hPD-1; CHO-hPD-1
Description: flow cytometry, CHO-human PD-1 cells. Set-up: Bmax: unit not given here.

In test [5] the target is T5, recombinant human Tim-3-Fc (R&D Systems, 2365-TM) (human, UniProt Q8TDQ0 22-202, biotinylated in the Galectin-9 competition ELISA (sites not given)).
T5 construct: Bought protein; also called huTim-3-Fc; biotinylated Tim-3-Fc; not shown: Fc of the bought fusion protein
Description: SPR Biacore, human Tim-3 Fc.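 Note: antibodies captured on an anti-FLAG sensor surface, Tim-3-Fc flowed over as analyte at 25 °C in HBS-EP+ buffer, rates fit with a 1:1 Langmuir model.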

In test [6] the target is T1, human Tim-3 expressed on the cell …. Kind of test: flow cytometry, activated human CD4+ T cells.
For test [7] the target is unchanged. Kind of test: flow cytometry, CHO-human Tim-3 cells.
Test [8] deals with T5, recombinant human Tim-3-Fc (R&D …). Description: competition ELISA, biotin-Tim-3-Fc vs coated Galectin-9. Background: ELISA stands for enzyme-linked immunosorbent assay.
For test [9], the target named is T6, cynomolgus Tim-3 expressed on CHO cells (cynomolgus monkey).
T6 construct: also called cTim-3; Cyno Tim-3 (CHO)
T6 chain: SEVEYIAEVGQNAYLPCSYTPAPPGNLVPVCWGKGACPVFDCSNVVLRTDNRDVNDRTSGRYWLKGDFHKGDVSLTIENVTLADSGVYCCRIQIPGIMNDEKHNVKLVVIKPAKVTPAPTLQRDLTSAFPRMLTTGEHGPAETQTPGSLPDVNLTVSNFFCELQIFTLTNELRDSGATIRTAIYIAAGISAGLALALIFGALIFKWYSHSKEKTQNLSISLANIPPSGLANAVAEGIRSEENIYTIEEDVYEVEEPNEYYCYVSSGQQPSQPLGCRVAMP
Kind of test: flow cytometry, CHO-cyno Tim-3 cells.

Test [10] has as its target T5, recombinant human Tim-3-Fc (R&D …). Description: SPR Biacore, human Tim-3 Fc; KD estimated.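 Note: antibodies captured on an anti-FLAG sensor surface, Tim-3-Fc flowed over as analyte at 25 °C in HBS-EP+ buffer, rates fit with a 1:1 Langmuir model.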
For test [11], the target named is T4, human PD-1 expressed on CHO cells. Kind of test: hPD-1 binding titration (format not named; taken as cell binding).
In test [12] the target is PD-1 (SPR analyte of the PD-1 kinetics) (Homo sapiens (Human), UniProt Q15116 25-167, limits assumed). Kind of test: SPR, PD-1 kinetics.

B1: 1353-G10 scFvFc-zwB × 1649-A01 Fab-zwA (parent) (bispecific antibody)
scFv: not shown
VH: EVQLVESGGGLVQPGGSLRLSCAASGFNISRYYIHWVRQAPGKGLEWVAGITPVRGYTEYADSVKDRFTISADTSKNTAYLQMNSLRAEDTAVYYCARGYVYRMWDSYDYWGQGTLVTVSS
VL: not shown
notes: Tim-3 heavy chain carries zwA (T350V/L351Y/F405A/Y407V) in CH3
Consider B1, for which the Bmax was 14700 in test [1] and 13300 in test [4]. Besides, the Kd (usually a measure of binding affinity in units of concentration) was determined as 3.9 nM in test [1], 12 nM in [2] and 1.4 nM in test [4]. The IC50 – broadly, the concentration that inhibits the measured activity by half – in test [3] came out at 191 nM.

B2: 1353-G10 scFvFc-zwB × 1649-A01 Hc zwA R31D/TrstmbLC S56D (bispecific antibody)
scFv: not shown
VH: EVQLVESGGGLVQPGGSLRLSCAASGFNISDYYIHWVRQAPGKGLEWVAGITPVRGYTEYADSVKDRFTISADTSKNTAYLQMNSLRAEDTAVYYCARGYVYRMWDSYDYWGQGTLVTVSS
VL: not shown
notes: Tim-3 heavy chain with zwA CH3 mutations
Take B2: the figures for the Bmax in [1] and in test [4] were 11300 and 14000, respectively. For the same molecule, the dissociation constant Kd stood at 3.5 nM in [1], 8.6 nM in test [2] and 2.7 nM in test [4]. The IC50 in test [3] turned out to be 117 nM.

B3: 1353-G10 scFvFc-zwB × 1649-A01 Hc zwA S30D/R31D/TrstmbLC S56D (bispecific antibody)
scFv: not shown
VH: EVQLVESGGGLVQPGGSLRLSCAASGFNIDDYYIHWVRQAPGKGLEWVAGITPVRGYTEYADSVKDRFTISADTSKNTAYLQMNSLRAEDTAVYYCARGYVYRMWDSYDYWGQGTLVTVSS
VL: not shown
notes: as for B2
In the case of B3, the Bmax was found to be 10500 in test [1] and 9860 in test [4]. For the same molecule, the values for the Kd in test [1], in [2] and in [4] were 3.7 nM, 8.7 nM and 1.1 nM, respectively. Moreover, the IC50 in test [3] was found to be 138 nM.

B4: 1353-G10 scFvFc-zwB × 1649-A01 Hc zwA R31D/Y56D/TrstmbLC S56D (bispecific antibody)
scFv: not shown
VH: EVQLVESGGGLVQPGGSLRLSCAASGFNISDYYIHWVRQAPGKGLEWVAGITPVRGDTEYADSVKDRFTISADTSKNTAYLQMNSLRAEDTAVYYCARGYVYRMWDSYDYWGQGTLVTVSS
VL: not shown
On to B4, for which the figures for the Bmax in [1] and in [4] were 11400 and 12600, respectively. For the same molecule, the figures for the Kd in test [1], in test [2] and in test [4] were 3.3 nM, 8.8 nM and 1.6 nM, respectively. Further, the IC50 in [3] amounted to 148 nM.

B5: 1353-G10 scFvFc-zwB × 1649-A01 Hc zwA S30D/Y56D/TrstmbLC S56D (bispecific antibody)
scFv: not shown
VH: EVQLVESGGGLVQPGGSLRLSCAASGFNIDRYYIHWVRQAPGKGLEWVAGITPVRGDTEYADSVKDRFTISADTSKNTAYLQMNSLRAEDTAVYYCARGYVYRMWDSYDYWGQGTLVTVSS
VL: not shown
notes: Tim-3 heavy chain with zwA CH3 mutations; also called 1649-A01 Hc zwA S30D/Y56D/TrsimbLC S56D
With B5, the Bmax is 10000 in test [1] and 9650 in test [4]. Besides, the Kd in test [1] stood at 3.6 nM; in test [2], 9.7 nM; in test [4], 1.2 nM. In test [3], the IC50 stood at 108 nM.

B6: 1353-G10 scFvFc-zwB × 1649-A01 Hc zwA S30D/TrstmbLC S56D (bispecific antibody)
scFv: not shown
VH: EVQLVESGGGLVQPGGSLRLSCAASGFNIDRYYIHWVRQAPGKGLEWVAGITPVRGYTEYADSVKDRFTISADTSKNTAYLQMNSLRAEDTAVYYCARGYVYRMWDSYDYWGQGTLVTVSS
VL: not shown
notes: as for B2
For the molecule B6, the results for the Bmax in test [1] and in [4] were 11700 and 12500, respectively. For the same molecule, the Kd in test [1] was found to be 3.2 nM; in [2] it was 7.1 nM; in test [4], 1.3 nM. For the same molecule, the IC50 in test [3] worked out at 128 nM.

B7: 1353-G10 scFvFc-zwB × 1649-A01 Hc zwA S30D/R31D/Y56D/TrstmbLC S56D (bispecific antibody)
scFv: not shown
VH: EVQLVESGGGLVQPGGSLRLSCAASGFNIDDYYIHWVRQAPGKGLEWVAGITPVRGDTEYADSVKDRFTISADTSKNTAYLQMNSLRAEDTAVYYCARGYVYRMWDSYDYWGQGTLVTVSS
VL: not shown
notes: as for B2
Consider B7, for which the Bmax in test [1] is 10900; in [4], 13000. Besides, the Kd worked out at 4.3 nM in [1], 11 nM in test [2] and 2.1 nM in test [4]. The IC50 in test [3] was 147 nM.

B8: h22E11-VK4-1 × h22E11-VH3-23 (antibody, V domains shown)
VH: EVQLLESGGGLVQPGGSLRLSCAVSGFSLTSYGVHWVRQAPGKGLEWLVVIWSDGSTTYNDSVKGRFTISKDNSKNTVYLQMNSLRAEDTAVYYCARQGGYRYDDAMDYWGQGTLVTVSS
VL: DIVLTQSPDSLAVSLGERATINCKASQSVDYDGNSYVNWYQQKPGQPPKLLIYAASNLESGVPDRFSGSGSGTDFTLTISSLQAEDVAVYYCQQSNEDPYTFGQGTKVEIK
notes: Humanized m22E11
On to B8, for which the koff (in general, the first-order rate constant of dissociation) in [5] was 0.000875 s⁻¹. Moreover, the Kd is 0.9 nM in [6], 0.9 nM in test [7], 4.6 nM in [9] and 5 nM in [10]. In addition, the IC50 in test [8] was 0.67 nM.

B9: h22E11-5-IgG-LC × h22E11-5-IgG-HC (antibody, V domains shown)
VH: EVQLVESGGGLVQPGGSLRLSCAVSGFSLTSYGVHWVRQAPGKGLEWLVVIWSDGSTTYNSALKSRFTISKDNAKNSVYLQMNSLRAEDTAVYYCARQGGYRYDDAMDYWGQGTLVTVSS
VL: EIVLTQSPGTLSLSPGERATLSCKASQSVDYDGNSYVAWYQQKPGQAPRLLIYAASNLESGIPDRFSGSGSGTDFTLTISRLEPEDFAVYYCQQSNEDPYTFGQGTKVEIK
notes: Humanized m22E11; also called h22E11-5 IgG (lot 2)
As for B9, the koff in [5] came to 0.0011 s⁻¹. In addition, the Kd in test [7] is 1 nM; in [10], 6.8 nM. For the same molecule, the IC50 in [8] worked out at 0.77 nM.

B10: h22E11-VK3-11 × h22E11-5-IgG-HC (antibody, V domains shown)
VH: EVQLVESGGGLVQPGGSLRLSCAVSGFSLTSYGVHWVRQAPGKGLEWLVVIWSDGSTTYNSALKSRFTISKDNAKNSVYLQMNSLRAEDTAVYYCARQGGYRYDDAMDYWGQGTLVTVSS
VL: EIVLTQSPATLSLSPGERATLSCKASQSVDYDGNSYVNWYQQKPGQAPRLLIYAASNLESGIPARFSGSGSGTDFTLTISSLEPEDFAVYYCQQSNEDPYTFGQGTKVEIK
notes: Humanized m22E11
Consider B10, for which the koff in test [5] was 0.00104 s⁻¹. Also, the Kd in [6] is 1.1 nM; in test [7], 0.8 nM; in [9], 5.3 nM; in test [10], 5.9 nM. In addition, the IC50 in test [8] is 0.64 nM.

B11: 1353-G10 wt IgG (antibody, V domains shown)
VH: EVQLVQSGAEVKKPGASVKVSCKASGYRFPHYGISWVRQAPGQGLEWMGWISAYNGNTNYAQKLQGRVTMTTDTSTNTAYMELRSLRSDDTAVYYCARDVDYGTGSGYWGQGTLVTVSS
VL: SYELTQPPSVSVSPGQTARITCSGDALPKQYAYWYQQKPGQAPVMVIYKDTERPSGIPERFSGSSSGTKVTLTISGVQAEDEADYYCQSADNSITYRVFGGGTKVTVL
notes: IgG; also called Sample I
B11: in test [11], the Bmax is 2980 and binding was characterised by a dissociation constant (Kd) of 0.1 nM. In [12], the Kd came out at 0.96 nM; the koff was 0.00059 s⁻¹; the kon (in general, a measure of how fast the partners come together) was found to be 620000 M⁻¹ s⁻¹.

B12: 1353-G10 vk1-39 LC IgG (antibody, V domains shown)
VH: EVQLVQSGAEVKKPGASVKVSCKASGYRFPHYGISWVRQAPGQGLEWMGWISAYNGNTNYAQKLQGRVTMTTDTSTNTAYMELRSLRSDDTAVYYCARDVDYGTGSGYWGQGTLVTVSS
VL: DIQLTQSPSSLSASVGDRVTITCSGDALPKQYAYWYQQKPGKAPKLLIYKDTERPSGVPSRFSGSSSGTKVTLTISSLQPEDFATYYCQSADNSITYRVFGGGTKVEIK
notes: IgG; also called Sample K
For B12, in test [11], the Bmax is 3630 and the Kd turned out to be 0.8 nM. In addition, in [12], the affinity, expressed as Kd, was 0.85 nM; the koff came out at 0.00049 s⁻¹; the kon was 580000 M⁻¹ s⁻¹.

B13: 1353-G10 H1 HC IgG (antibody, V domains shown)
VH: EVQLVQSGAEVKKPGASVKVSCKASGYTFDSYGISWVRQAPGQGLEWMGWISAYNGNTNYAQKLQGRVTMTTDTSTNTAYMELRSLRSDDTAVYYCARDVDYGTGSGYWGQGTLVTVSS
VL: SYELTQPPSVSVSPGQTARITCSGDALPKQYAYWYQQKPGQAPVMVIYKDTERPSGIPERFSGSSSGTKVTLTISGVQAEDEADYYCQSADNSITYRVFGGGTKVTVL
notes: IgG; also called Sample J
For the molecule B13, in test [11], the Bmax amounted to 3410 and the Kd amounted to 0.5 nM. In test [12], this molecule had a Kd of 2.3 nM, a koff of 0.0026 s⁻¹ and a kon of 1.1e+06 M⁻¹ s⁻¹.

Values taken from US20200190192A1 (SUTRO BIOPHARMA, published 2020).
